Molecular target: DR5-KF fusion protein (human, UniProt O14763 54-183; P01834 1-107, limits assumed)
Test: sandwich ELISA for simultaneous binding: anti-DR4 mAb coat, DR4-hFc 0.5 µg/ml, test mAb, DR5-KF 0.5 µg/ml, HRP-anti-Flag M2
Method: Each step of each ELISA assay described in this patent application was performed by room temperature incubation with the appropriate reagent for 1 hour, except the initial plate coating step was done overnight at 4° C. followed by blocking with 2% BSA for 1 hr. Between each step, plates were washed 3 times in PBS containing 0.05% Tween 20. Data points were generally in duplicate or triplicate; there was generally little variability between replicate data points.
Bound DR5-KF was detected with HRP-anti-Flag M2 (Sigma) and substrate.

DR5-KF fusion protein, sequence (O14763 other isoform, or with tags, fused parts or gaps limits assumed): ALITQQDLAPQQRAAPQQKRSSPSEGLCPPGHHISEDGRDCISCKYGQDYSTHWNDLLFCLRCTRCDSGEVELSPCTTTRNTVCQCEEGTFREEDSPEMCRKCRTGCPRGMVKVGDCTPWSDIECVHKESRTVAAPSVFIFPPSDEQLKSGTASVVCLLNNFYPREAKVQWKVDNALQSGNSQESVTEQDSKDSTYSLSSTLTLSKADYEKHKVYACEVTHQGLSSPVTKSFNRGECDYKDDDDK

binding result: binds
B1: B-4H6/3H3-hFc** (bispecific antibody, human IgG1, kappa)
heavy: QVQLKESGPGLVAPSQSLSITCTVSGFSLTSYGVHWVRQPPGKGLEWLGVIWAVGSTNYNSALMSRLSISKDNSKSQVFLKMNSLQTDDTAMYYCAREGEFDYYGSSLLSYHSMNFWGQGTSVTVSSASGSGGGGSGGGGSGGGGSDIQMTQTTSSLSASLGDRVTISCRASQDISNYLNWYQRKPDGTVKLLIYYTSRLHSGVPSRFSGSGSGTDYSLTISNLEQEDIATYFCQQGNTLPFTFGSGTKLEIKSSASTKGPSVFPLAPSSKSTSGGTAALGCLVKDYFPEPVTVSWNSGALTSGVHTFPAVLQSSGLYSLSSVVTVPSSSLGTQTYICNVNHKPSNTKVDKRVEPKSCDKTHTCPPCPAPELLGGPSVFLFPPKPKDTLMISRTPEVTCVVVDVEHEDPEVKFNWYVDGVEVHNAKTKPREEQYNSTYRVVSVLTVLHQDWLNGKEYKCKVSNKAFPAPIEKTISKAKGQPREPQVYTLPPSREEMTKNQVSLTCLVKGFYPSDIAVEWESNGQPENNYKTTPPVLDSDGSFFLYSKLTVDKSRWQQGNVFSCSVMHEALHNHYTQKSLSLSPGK
light: EVQLQQSGPELVKPGASVKMSCKASGYTFTSYVMHWVKQKPGQGLEWIGYIIPYNDGTKYNEKFKGKATLTSDKSSSTAYMELSRLTSEDSAVYYCARGGINYDYLYYFDYWGQGTTLTVSSASGSGGGGSGGGGSGGGGSDVVMTQIPLSLPVSLGDQASISCRSSQSLVHSNGNTYLHWYLQKPGQSPKLLIYKVSNRFSGVPDRFSGSGSGTDFTLKISRVEAEDLGVYFCSQSTHVPHTFGGGTKLEIKRTVAAPSVFIFPPSDEQLKSGTASVVCLLNNFYPREAKVQWKVDNALQSGNSQESVTEQDSKDSTYSLSSTLTLSKADYEKHKVYACEVTHQGLSSPVTKSFNRGEC
notes: Bs(scFv)4-IgG format; also called bispecific B-4H6/3H3-hFc** mAb

Reference: patent US20190062443A1 (GALAXY BIOTECH, published 2019)
